Here are results for 5 molecules from publication doi:10.1101/2020.08.04.235895, “Analysis of Structure and function by the LysR-Type Transcriptional Regulator CbbR of Nostoc sp. PCC 7120”.

For data set [1], the target named is T1, CbbR_7120 (Nostoc sp. PCC 7120, UniProt Q8YQ82 1-337).
T1 sequence: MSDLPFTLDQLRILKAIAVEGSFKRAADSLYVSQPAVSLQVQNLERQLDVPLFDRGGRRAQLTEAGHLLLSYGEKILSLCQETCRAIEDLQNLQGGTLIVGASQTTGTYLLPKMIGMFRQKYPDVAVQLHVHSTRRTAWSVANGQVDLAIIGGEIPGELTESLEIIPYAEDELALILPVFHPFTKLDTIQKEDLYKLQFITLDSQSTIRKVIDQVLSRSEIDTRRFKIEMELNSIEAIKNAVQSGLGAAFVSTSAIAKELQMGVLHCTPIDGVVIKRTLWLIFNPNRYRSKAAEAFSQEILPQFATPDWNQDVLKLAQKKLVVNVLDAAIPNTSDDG
In words: EMSA; EMSA: 5X buffer 100 mM HEPES pH 7.6, 5 mM EDTA, 50 mM (NH4)2SO4, 5 mM DTT, 1% Tween 20, 150 mM KCl (2.5 uL per reaction, volume printed as 10 mL); 15 min on ice; 6% TBE-PAGE on ice. To be noted: protein: recombinant; tags: N-terminal 6xHis; chain copies: 4; label: 5'-FAM on forward strand; blunt. Background: A gel shift assay detects complexes by their altered migration in electrophoresis.

The target in data set [2] is T1, CbbR_7120. In words: competition EMSA; competitor vs FAM-DNA; EMSA: 5X buffer 100 mM HEPES pH 7.6, 5 mM EDTA, 50 mM (NH4)2SO4, 5 mM DTT, 1% Tween 20, 150 mM KCl (2.5 uL per reaction, volume printed as 10 mL); 15 min on ice; 6% TBE-PAGE on ice. To be noted: protein: recombinant; tags: N-terminal 6xHis; chain copies: 4; blunt.
The target of data set [3] is T1, CbbR_7120. The data set is described as above. To be noted: protein: recombinant; tags: N-terminal 6xHis; chain copies: 4; blunt. The source holds these as a separate data set.
The target in data set [4] is T1, CbbR_7120. In words: competition EMSA; competitor vs FAM-DNA; no significant change in free FAM-DNA; EMSA: 5X buffer 100 mM HEPES pH 7.6, 5 mM EDTA, 50 mM (NH4)2SO4, 5 mM DTT, 1% Tween 20, 150 mM KCl (2.5 uL per reaction, volume printed as 10 mL); 15 min on ice; 6% TBE-PAGE on ice. To be noted: protein: recombinant; tags: N-terminal 6xHis; chain copies: 4; blunt.
For data set [5], the target named is T1, CbbR_7120. In words: competition EMSA; competitor vs FAM-DNA; EMSA: 5X buffer 100 mM HEPES pH 7.6, 5 mM EDTA, 50 mM (NH4)2SO4, 5 mM DTT, 1% Tween 20, 150 mM KCl (2.5 uL per reaction, volume printed as 10 mL); 15 min on ice; 6% TBE-PAGE on ice. To be noted: protein: recombinant; tags: N-terminal 6xHis; chain copies: 4; blunt. The source holds these as a separate data set.

B1: FAM-DNA (rbcLXS promoter probe) (dsDNA)
DNA 1: TAATAACAAATTTAAATATGTAAGTTAAGAACTTTCAAAGAATAACTTATGCCATTTCTTGATAT
DNA 2: ATATCAAGAAATGGCATAAGTTATTCTTTGAAAGTTCTTAACTTACATATTTAAATTTGTTATTA
Take B1: in data set [1], the binding result is on record as “binds”.

B2: BOX1OP1 (dsDNA)
DNA 1: TGTAATAACAAATTTAAATATGTCATATAACAAATTTAAATATGT
DNA 2: ACATATTTAAATTTGTTATATGACATATTTAAATTTGTTATTACA
For B2, the binding signal in data set [2] is ~10 competitor:FAM-DNA ratio for complete competition.

B3: BOX 1 (dsDNA)
DNA 1: TAATAACAAATTTAAATAT
DNA 2: ATATTTAAATTTGTTATTA
Consider B3, for which the binding signal in data set [3] is ~400 competitor:FAM-DNA ratio for complete competition.

B4: BOX 2 (dsDNA)
DNA 1: AGTTAAGAACTTTCAAAGA
DNA 2: TCTTTGAAAGTTCTTAACT
For the molecule B4, in data set [4], the binding result is recorded as “no binding”.

B5: BOX 3 (dsDNA)
DNA 1: TTATGCCATTTCTTGATAT
DNA 2: ATATCAAGAAATGGCATAA
Consider B5, for which the binding signal in data set [5] is ~1000 competitor:FAM-DNA ratio for complete competition.
